Source: publication PMC8125063

What was measured:
[1] = target: human Fbp2 L190G mutein (human); assay: native gel or EMSA; Native 9% PAGE; 200 mM Glycine-NaOH pH 9.0, 1 mM MgCl2, with or without 100 µM CoCl2 and/or 10 µM AMP in gel and running buffer; 3 h at 254 V
[2] = target: human Fbp2 L190G mutein (human); assay: SEC; HiLoad 16/600 Superdex 200 pg; 50 mM HEPES-NaOH pH 7.5, 150 mM KCl, 1 mM MgCl2, with or without 100 µM CoCl2 and/or 10 µM AMP; 0.5 mg protein loaded, 1 mL/min

- stoichiometry N [1]: 2
- stoichiometry N [2]: 2
Substance: human Fbp2 L190G mutein (enzyme)
